According to patent US20260226143A1 (OTHAIR PROTHENA, published 2026):

Columns and labels:
soluble Aβ oligomers = soluble Aβ oligomers (human, partly biotinylated (unlabeled, biotinylated or 9:1 unlabeled:biotinylated preparations)); test: cell-based or functional assay
[1] = target: T1, aggregated Aβ42 (heterogeneous Aβ 42 aggregate mixture) (human); test: competition ELISA, plate coated with aggregated Aβ42; competitor biotinylated hBP
T1 construct: Aβ 42 vortexed in water and kept on a nutator for 48 h at room temperature, then coated on plates; also called Aβ aggregates; heterogeneous aggregated Aβ42 species
T1 sequence (peptide, as listed by the source): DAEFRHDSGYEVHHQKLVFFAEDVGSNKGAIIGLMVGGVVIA
Protocol: One mg of Aβ 42 was added to 1 ml of diH2O and was vigorously vortexed and placed on a nutator for 48 hours at room temperature. Plates were coated with 0.5 mg/ml of the heterogeneous Aβ 42 aggregate mixture and blocked, e.g., with 1% BSA/PBS. […] 100 ul of GE Streptavidin HRP diluted 1/10,000 was then added and incubated for 30 minutes. Plates were washed six times with TTBS. Thermo Fisher o-phenylenediamine dihydrochloride (OPD) substrate was prepared fresh per manufacturers direction, and 100 μl per well was added. The reaction was incubated for 15 minutes and the reaction stopped with 50 ul 2N H₂SO₄. […] For FIG. 20A and FIG. 20B, curves and resulting IC₅₀ estimations represent nonlinear three-parameter least squares fit of data. Individual points are the average of triplicate samples (coefficient of variation <20%).

[2] = target: T2, recombinant Aβ1-42 fibrils (human); test: direct ELISA on plate-coated Aβ fibrils, antibody titrated
T2 construct: Fibrils made from HFIP-treated Aβ1-42 (DMSO, 10 mM HCl, 37 C, 24 h; pellet resuspended and sonicated); also called fibril Aβ42; fibril Aβ
T2 sequence (peptide, as listed by the source): as above
Protocol: (§1) Plates were blocked 1% BSA/PBS for 1 hour. […] Plates were washed four times with TBS/Tween 20 and 100 μl of goat anti Human IgG HRP (Jackson ImmunnoResearch Laboratories, Inc, West Grove, PA or Invitrogen, Carlsbad, CA) at 1/5000 dilution was added to each well and incubated 1 hour at room temperature. Plates were wash six times in TBS/Tween 20, and Thermo Fisher o-phenylenediamine dihydrochloride (OPD) tablets and ThermoFisher substrate buffer were prepared per manufacturer's instructions. 100 μl of substrate was added and incubated 15 min. Reaction was stopped with 50 μl H₂SO₄. Plates were read at 490 nm on a molecular devices spectromax. FIG. 9A, and FIG. 21. For FIG. 21, curves and resulting EC₅₀ estimations represent nonlinear three-parameter least squares fit of the data (data shown in Table 7).

[3] = target: T2, recombinant Aβ1-42 fibrils; test: direct ELISA, fibril Abeta plate coat titrated, antibody held constant at 2 ug/ml; unit from the axis 'log ng/ml Abeta' [right panel]
Protocol: Plates were blocked 1% BSA/PBS 1 hour. Antibodies at 2 μg/ml in 0.1% BSA/PBS 0.1% Tween 20 were added in duplicate to the appropriate wells and incubated for 2 hrs at room temperature. Plates were washed 4× with TBS/Tween 20 and then 100 μl of Jackson Goat anti Human IgG HRP 1/5000 dilution was added to each well and incubated 1 hour at room temperature. Plates were wash six times in TBS/Tween 20, and Thermo Fisher o-phenylenediamine dihydrochloride (OPD) tablets and Thermofisher substrate buffer were prepared per manufacturer's instructions. 100 μl of substrate was and incubated 15 min. Reaction was stopped with 50 μl H₂SO₄. Plates were read at 490 nm on a molecular devices spectromax. FIG. 9B, right panel.

[4] = target: T2, recombinant Aβ1-42 fibrils; test: direct ELISA on plate-coated Aβ fibrils; the low end falls to h2831 by the EC50 values of Table 7
Protocol: as §1

[5] = target: T2, recombinant Aβ1-42 fibrils; test: direct ELISA on plate-coated Aβ fibrils; the high end falls to h2726 by the EC50 values of Table 7
Protocol: as §1

Chain of soluble Aβ oligomers (human, partly biotinylated (unlabeled, biotinylated or 9:1 unlabeled:biotinylated preparations)) (peptide, as listed by the source): as above

Binder | IC50 of the reduction of Abeta spots per neuron (% Abeta control, normalized to untreated Abeta) (soluble Aβ oligomers) | IC50 [1] | EC50 [2] | Total Area (area under the curve of % Abeta control against mAb concentration) (soluble Aβ oligomers) | IC50 (as headed in the table; half-maximal concentration of the Abeta fibril coat) [3] | fold lower estimated EC50 than aducanumab [4] | fold lower estimated EC50 than aducanumab [5]
h2731 (antibody, human IgG1, kappa, V domains shown, Heavy chain with or without the C-terminal lysine) VH: EVQLLESGGGLVQPGGSLRLSCAASGFTFSNYGMSWVRQAPGKGLEWVASIRSGSGRTYYSDNVKGRFTISRDNSKNTLYLQMNSLRAEDTAVYYCVRYDHYSGSSDYWGQGTLVTVSS VL: DVVMTQSPLSLPVTLGEPASISCKSSQSLLDYDGKTYLNWLLQKPGQSPQRLIYRVTNRDTGVPDRFSGSGSGTDFTLKISRVEAEDVGVYYCWQGTHFPRSFGQGTKVEIKR | 0.47 µg/mL | 5.02 µg/mL | 0.0367 µg/mL | – | – | – | –
h2831 (antibody, V domains shown, Humanized IgG; only variable domains tied to the name; also called PB-0575) VH: EVQLLESGGGLVQPGGSLRLSCAASGFTFSNFGMSWVRQAPGKGLEWVASVRSGSGRTYYSDNVKGRFTISRDNSKNTLYLQMNSLRAEDTAVYYCVRYDHYSGTSDYWGQGTLVTVSS VL: DVVMTQSPLSLPVTLGEPASISCKSSQSLLDYDGKTYLNWLLQKPGQSPQRLIYRVTNRDTGVPDRFSGSGSGTDFTLKISRVEAEDVGVYYCWQGTHFPRSFGQGTKVEIK | 0.924 µg/mL | 9.91 µg/mL | 0.0489 µg/mL | 6500 | 0.412 µg/mL | 15 to 20 fold | –
h2931 (antibody, V domains shown, Humanized IgG; only variable domains tied to the name; also called PB-0576) VH: EVQLLESGGGLVQPGGSLRLSCAASGFTFSNFGMSWVRQAPGKGLEWVASVRSGSGRTYYSDNVKGRFTISRDNSKNTLYLQMNSLRAEDTAVYYCVRYDHYTGTSDYWGQGTLVTVSS VL: DVVMTQSPLSLPVTLGEPASISCKSSQSLLDYDGKTYLNWLLQKPGQSPQRLIYRVTNRDTGVPDRFSGSGSGTDFTLKISRVEAEDVGVYYCWQGTHFPRSFGQGTKVEIK | 0.627 µg/mL | 6.9 µg/mL | 0.0449 µg/mL | 8480 | 0.335 µg/mL | – | –
h2726 (antibody, V domains shown, Humanized IgG; also called PB-0573) VH: EVQLLESGGGLVQPGGSLRLSCAASGFTFSNYGMSWVRQAPGKGLEWVASIRSGSGRTYYSDNVKGRFTISRDNSKNTLYLQMNSLRAEDTAVYYCVRYDHYSGSSDYWGQGTLVTVSS VL: DVVMTQSPLSLPVTPGEPASISCKSSQSLLDYDGKTYLNWLLQKPGQSPQRLIYKVSNRDSGVPDRFSGSGSGTDFTLKISRVEAEDVGVYYCWQGTHFPRTFGQGTKVEIK | 1.67 µg/mL | 9.05 µg/mL | 0.0359 µg/mL | 9070 | 0.387 µg/mL | – | 15 to 20 fold
